In paper PMC3691878 one finds stoichiometry N data, which are given here for three substances.

Holding throughout (experiment): SEC
Background: SEC sorts molecules by how far they enter the pores of the column.

Assay [1] deals with rainbow trout (Oncorhynchus mykiss) BALM (rainbow trout (Oncorhynchus mykiss)).
Assay [2] has as its target rainbow trout (Oncorhynchus mykiss) RANKL (rainbow trout (Oncorhynchus mykiss)).
Assay [3] deals with rainbow trout (Oncorhynchus mykiss) TRAIL-like (rainbow trout (Oncorhynchus mykiss)).

The stoichiometry N is the number of molecules, sites or subunits per partner or assembly. Consider “rainbow trout (Oncorhynchus mykiss) BALM (ligand)”, for which the stoichiometry N in assay [1] was found to be 3.
“rainbow trout (Oncorhynchus mykiss) RANKL (ligand)” registered a stoichiometry N in assay [2] of 3.
The substance “rainbow trout (Oncorhynchus mykiss) TRAIL-like (ligand)” gave a stoichiometry N in assay [3] of 3.
